US20250333514A1 (CDR LIFE, published 2025)
Residue numbers refer to the chain shown, from its start. One block for each binder: values may come before it.

Experiments:
[1] = molecular target: HLA-A*02:01 loaded with PRAME peptide G8A (human, Non-covalent three-chain complex; biotinylated for capture on the chip, site or tag of biotinylation not stated.); test: SPR (Biacore 8K), pMHC captured, Fab-scFv analyte
Description: (§1) Recombinantly produced hits in Fab-scFv format, as described in Example 4, were evaluated for their ability to bind HLA-A*02:01/PRAME antigen. Binding characterization was performed by surface plasmon resonance (SPR) using a Biacore™ 8k (Cytiva) device. Briefly, 3000 RU of Biotin CAPture reagent (Cytiva) was immobilized on a Series S Sensor Chip CAP (Cytiva) and the biotinylated ligand HLA-A*02:01/PRAME (SEQ ID NO: 68) was diluted in HPS-EP+ running buffer (TEKNOVA) and captured for 300 s at a flow rate of 2 μL/min at flow cell 2 resulting in a ligand capture level of >100 RU. Subsequently, at least three consecutive analyte injections were performed at suitable concentrations applying the single-cycle-kinetics mode at a flow rate of 30 μL/min with an association time of 90 s and the dissociation time set to >400 s. The chip surface was regenerated according to the manufacturer's instructions. After reference flow cell signal and blank injections subtraction, the data was fit to a 1:1 Langmuir binding model to determine the association rate constant kₐ and dissociation rate constant kd and calculate the equilibrium dissociation constant KD (kd/kₐ), also denoted as affinity, using the Biacore™ Insight Evaluation software.
(§2) The molecular recognition profile of monovalent (Fab-scFv) antigen binding molecules M3076 and M3287 for HLA-A*02:01/PRAME binding (equivalent bivalent (Fab-(scFv)₂) antigen binding molecules are M3167 and M3292, respectively) were determined by SPR measurements with HLA-A*02:01 complexes loaded with PRAME peptide or peptides containing a single amino acid substitution to alanine, arginine or aspartic acid. The kinetic parameters for each HLA-A*02:01 complex loaded with a peptide was determined by SPR, according to the previously described method in Example 5.

[2] = molecular target: HLA-A*02:01 loaded with PRAME peptide S1A (human, Complex captured as in Example 5 (biotinylated ligand); biotin site or tag not stated, not in the letters.); test: SPR (Biacore 8K), pMHC captured, Fab-scFv analyte
Description: as §1, §2

[3] = molecular target: HLA-A*02:01 loaded with PRAME peptide L6A (human, Complex captured as in Example 5 (biotinylated ligand); biotin site or tag not stated, not in the letters.); test: SPR (Biacore 8K), pMHC captured, Fab-scFv analyte
Description: as §1, §2

[4] = molecular target: HLA-A*02:01 loaded with PRAME peptide L2A (human, Complex captured as in Example 5 (biotinylated ligand); biotin site or tag not stated, not in the letters.); test: SPR (Biacore 8K), pMHC captured, Fab-scFv analyte
Description: as §1, §2

[5] = molecular target: HLA-A*02:01 loaded with PRAME peptide I7A (human, Complex captured as in Example 5 (biotinylated ligand); biotin site or tag not stated, not in the letters.); test: SPR (Biacore 8K), pMHC captured, Fab-scFv analyte
Description: as §1, §2

[6] = molecular target: T1, HLA-A*02:01/PRAME antigen (recombinant, … on HLA-A*02:01) (human, Complex biotinylated for SPR capture; site of biotin and any tag not stated, not in the letters.); test: SPR (Biacore 8K), pMHC captured, Fab-scFv analyte
T1 construct: also called PRAME target; pMHC
Description: as §1, §2

[7] = molecular target: HLA-A*02:01 loaded with PRAME peptide H5A (human, Complex captured as in Example 5 (biotinylated ligand); biotin site or tag not stated, not in the letters.); test: SPR (Biacore 8K), pMHC captured, Fab-scFv analyte
Description: as §1, §2

[8] = molecular target: HLA-A*02:01 loaded with PRAME peptide L9A (human, Non-covalent three-chain complex; biotinylated for capture on the chip, site or tag of biotinylation not stated.); test: SPR (Biacore 8K), pMHC captured, Fab-scFv analyte
Description: as §1, §2

[9] = molecular target: HLA-A*02:01 loaded with PRAME peptide Q4A (human, Complex captured as in Example 5 (biotinylated ligand); biotin site or tag not stated, not in the letters.); test: SPR (Biacore 8K), pMHC captured, Fab-scFv analyte
Description: as §1, §2

[10] = molecular target: HLA-A*02:01 loaded with PRAME peptide L3A (human, Complex captured as in Example 5 (biotinylated ligand); biotin site or tag not stated, not in the letters.); test: SPR (Biacore 8K), pMHC captured, Fab-scFv analyte
Description: as §1, §2

[11] = molecular target: T1, HLA-A*02:01/PRAME antigen (recombinant, …); test: SPR (Biacore 8K), biotinylated pMHC captured, Fab-scFv analyte, single-cycle kinetics, 1:1 fit
Description: as §1

[12] = molecular target: HLA-A*02:01 loaded with PRAME peptide L6D (human, Complex was biotinylated for capture on the SPR chip; site or tag of biotinylation not disclosed and not in the letters.); test: SPR (Biacore 8K), pMHC captured, Fab-scFv analyte
Description: as §1, §2

[13] = molecular target: HLA-A*02:01 loaded with PRAME peptide Q4D (human, pMHC ligand was biotinylated for capture (Example 5); site or tag of biotinylation not disclosed); test: SPR (Biacore 8K), pMHC captured, Fab-scFv analyte
Description: as §1, §2

Kd [1]: 0.77 nM
Kd [2]: 0.09 nM
Kd [3]: 15 nM
Kd [4]: 0.07 nM
Kd [5]: 31 nM
Kd [6]: 0.08 nM
Kd [7]: 3 nM
Kd [8]: 1.7 nM
Kd [9]: 0.18 nM
Kd [10]: 0.19 nM
Kd [11]: 0.07 nM
binding result [12]: no binding
Kd [13]: 0.34 nM
B1: M3076 (bispecific antibody)
heavy: EVQLVESGGGLVQPGGSLRLSCAASGFTFSTYAMNWVRQAPGKGLEWVGRIRSKYNNYATYYADSVKGRFTISRDDSKNTLYLQMNSLRAEDTAVYYCVRHGNFGDSYVSWFAYWGQGTLVTVSSASTKGPSVFPLAPSSKSTSGGTAALGCLVKDYFPEPVTVSWNSGALTSGVHTFPAVLQSSGLYSLSSVVTVPSSSLGTQTYICNVNHKPSNTKVDKKVEPKSCGGGGSDIQMTQSPSSLSASVGDRVTITCRSSQSVYNNLLGWYQQKPGKAPKLLIYSASTLASGVPSRFSGSGSGTDFTLTISSLQPEDFATYYCQGTYYNGDWYYPFGCGTKVEIKGGGGSGGGGSGGGGSGGGGSQVQLVESGGGSVQPGRSLRLSCAASGFDFSTYGVSWVRQAPGKCLEWIGYIDPVYGSTHYADSVKGRFTISRDNSKNTLYLQMNSLRAEDTASYYCVRDLYAGSSGYYMIYSLWGQGTSVTVSS
light: QAVVTQEPSLTVSPGGTVTLTCGSSTGAVTTSNYANWVQQKPGKSPRGLIGGTNKRAPGVPARFSGSLLGGKAALTISGAQPEDEADYYCALWYSNHWVFGGGTKLTVLGQPKAAPSVTLFPPSSEELQANKATLVCLISDFYPGAVTVAWKADSSPVKAGVETTTPSKQSNNKYAASSYLSLTPEQWKSHRSYSCQVTHEGSTVEKTVAPTECS
notes: Humanized variant of M2638, monovalent Fab-scFv; bivalent equivalent is M3167

Kd [1]: 9.8 nM
Kd [2]: 1.1 nM
Kd [3]: 67 nM
Kd [4]: 0.62 nM
Kd [5]: 100 nM
Kd [6]: 0.57 nM
Kd [7]: 16 nM
Kd [8]: 18 nM
Kd [9]: 1.2 nM
Kd [10]: 1.6 nM
Kd [11]: 0.57 nM
binding result [12]: no binding
Kd [13]: 3.4 nM
B2: M3287 (bispecific antibody)
heavy: B1 heavy with F317S, N328T, M473V
light: B1 light
notes: Humanized variant of M2638, monovalent Fab-scFv; bivalent equivalent is M3292
